Source: patent US20250188194A1, “Method of treatment” (Nucleus Therapeutics Pty Ltd, priority 2021, published 2025)

Legend:
PLB-985 cells = experiment: Cellular penetration assay; format: cell-based, human; conditions: PLB-985 cells in culture, 5 μM DX1 for one hour
Experimental: FIG. 1. DX1 penetrates PLB-985 cells. Cells treated with control or 5 μM DX1 for one hour were washed, fixed, and immunostained to detect DX1. […] Dark stain represents alkaline phosphatase-based detection of signal. Bar: 25 μm.
Work with isolated mouse or human neutrophils is challenging due to their short functional lifespans, and granulocyte-differentiated HL-60 and their subclone PLB-985 human acute myeloid leukemia cells provide a reliable alternative to isolated neutrophils for NETosis studies. The nuclear-penetrating anti-DNA autoantibody 3E10 and its derivative DX1 require expression of the nucleoside transporter ENT2 in order to penetrate target cells. ENT2 expression in HL-60 cells has previously been reported, and DX1 was confirmed to penetrate into ˜100% of PLB-985 cells in culture (FIG. 1).
PLB-985 cells cultured on Shi-fix coverslips (Shikhar Biotech, Khumaltar, Lalitpur, Nepal) were treated for one hour with control media or media containing 5 μM DX1 and then washed and fixed in 100% chilled ethanol. Presence of DX1 in the cells was evaluated by incubation with Pierce™ Recombinant Protein L (1:1000) (#21189, Thermo Fisher Scientific), protein L polyclonal antibody (1:1000) (#PA1-72066, Thermo Fisher Scientific), and goat anti-chicken IgY (H+L) alkaline phosphatase secondary antibody (1:1000) (#PA1-28799, Thermo Fisher Scientific). […]

[1] = tested on: differentiated PLB-985 cells; experiment: Quantifying DNA released (adherent NET-DNA) after PMA stimulation by spectrophotometry; format: cell-based, human; conditions: 10 μM DX1 one hour, 300 nM PMA four hours; PMA control 4.50±0.14; N=3
Experimental: The results of the DAPI and SYTOX™ Green staining studies in FIG. 2C, 2D are consistent with DX1-mediated inhibition of chromatin decondensation and DNA release by differentiated PLB-985 cells. To further probe this effect, DNA-protein release was measured by differentiated PLB-985 cells after PMA stimulation by resuspending and quantifying DNA-protein complexes adherent to wells by spectrophotometry using a previously described protocol for isolation and quantification of NET-DNA in cell culture. This assay is based on the concept that intact cells for the most part remain in suspension, while DNA-protein complexes released in NETs are at least partially adhered to wells. This distinction allows for separation of intact cells from adherent NET-DNA by aspiration of the cell culture supernatants, followed by resuspension of adherent DNA-protein complexes and quantification by spectrophotometry.
Next, the ability of this assay to detect the effect of a known NETosis inhibitor on DNA release by differentiated PLB-985 cells stimulated by PMA was verified. […] Differentiated PLB-985 cells were treated with 0-50 μM of GSK484 for one hour prior to stimulation with PMA, followed by quantification of adherent DNA by spectrophotometry. […]

B1: DX1: 3E10 derivative, a di-scFv having the sequence SEQ ID NO: 38; nuclear-penetrating anti-DNA binding protein (protein)
scFv: DIQMTQSPSSLSASLGDRATITCRASKTVSTSSYSYMHWYQQKPGQPPKLLIKYASYLESGVPSRFSGSGSGTDFTLTISSLQPEDAATYYCQHSREFPWTFGGGTKVEIKTVDAAPGGGGSGGGGSGGGGSEVQLVESGGGLVQPGGSLRLSCAASGFTFSNYGMHWVRQAPGKGLEWVSYISSGSSTIYYADSVKGRFTISRDNAKNSLYLQMNSLRAEDTAVYYCARRGLLLDYWGQGTTVTVSSASTKGPSVFPLAPLESTGSDIQMTQSPSSLSASLGDRATITCRASKTVSTSSYSYMHWYQQKPGQPPKLLIKYASYLESGVPSRFSGSGSGTDFTLTISSLQPEDAATYYCQHSREFPWTFGGGTKVEIKTVDAAPGGGGSGGGGSGGGGSEVQLVESGGGLVQPGGSLRLSCAASGFTFSNYGMHWVRQAPGKGLEWVSYISSGSSTIYYADSVKGRFTISRDNAKNSLYLQMNSLRAEDTAVYYCARRGLLLDYWGQGTTVTVSS
modifications: DX1 sequence
- cells penetrated by DX1 (PLB-985 cells): ~100%
- released/adherent DNA content relative to unstimulated control cells [1]: 1.80±0.11
